From patent publication US20150306238A1, “BACTERIA TARGETING NANOPARTICLES AND RELATED METHODS OF USE” (THE REGENTS OF THE UNIVERSITY OF MICHIGAN, priority 2012, published 2015)
Values joined by “and” are separate entries in the source; they are usually repeats but may differ in a detail not shown here. Equal values may be shown once. Read-outs that look alike come from different tables or passages of the source.

Tests used:
[1] = biological target: N^α-Ac-Lys-(D)-Ala-(D)-Lac peptide; test: SPR; ratio against free vancomycin
[2] = biological target: N^α-Ac-Lys-(D)-Ala-(D)-Lac peptide; test: SPR (Biacore X), peptide immobilised on CM5 chip, Langmuir fit
[3] = biological target: N^α-Ac-Lys-(D)-Ala-(D)-Ala peptide; test: SPR; ratio against free vancomycin
[4] = biological target: N^α-Ac-Lys-(D)-Ala-(D)-Ala peptide; test: SPR (Biacore X), peptide immobilised on CM5 chip, Langmuir fit
[5] = biological target: N^α-Ac-Lys-(D)-Ala-(D)-Lac peptide; test: SPR; vancomycin is the reference
[6] = biological target: N^α-Ac-Lys-(D)-Ala-(D)-Ala peptide; test: SPR; vancomycin is the reference
[7] = biological target: N^α-Ac-Lys-(D)-Ala-(D)-Lac peptide; test: SPR (Biacore X), peptide immobilised on CM5 chip, Scatchard analysis
[8] = biological target: N^α-Ac-Lys-(D)-Ala-(D)-Ala peptide; test: as above
bacterial cells = conditions: reported in literature; cited from earlier work
[9] = system: N^α-Ac-Lys-(D)-Ala-(D)-Lac peptide; test: SPR binding to vancomycin-resistant bacterial cell wall model
Text: SPR spectroscopy is a real-time kinetic method that allows the measurement of the on-rate constant (kon), the off-rate constant (koff), and equilibrium dissociation constant KD (=koff/kon) for receptor-ligand interactions occurring on the surface (see, e.g., Rao, J.; et al., Chem. Biol. (Cambridge, Mass., U.S.) 1999, 6, 353-359; Rao, J.; et al., J. Am. Chem. Soc. 1999, 121, 2629-2630; Hong, S.; et al., Chem. Biol. (Cambridge, Mass., U.S.) 2007, 14, 107-115; Li, M.-H.; Eur. J. Med. Chem. 2012, 47, 560-572; Plantinga, A.; et al., ACS Med. Chem. Lett. 2011, 2, 363-367; Cooper, M. A.; et al., Bioorg. Med. Chem. 2000, 8, 2609-2616; each herein incorporated by reference in its entirety)). The experiments employed SPR spectroscopy to determine the binding constant KD for dendrimer-based multivalent vancomycin conjugates to the cell wall ligands immobilized on the chip surface as a model for the bacterial cell surface. […]

[10] = system: N^α-Ac-Lys-(D)-Ala-(D)-Ala peptide; test: SPR binding to vancomycin-susceptible bacterial cell wall model; conditions: for Kd: (D)-Ala-(D)-Ala surface
Text: SPR spectroscopy is a real-time kinetic method that allows the measurement of the on-rate constant (kon), the off-rate constant (koff), and equilibrium dissociation constant KD (=koff/kon) for receptor-ligand interactions occurring on the surface (see, e.g., Rao, J.; et al., Chem. Biol. (Cambridge, Mass., U.S.) 1999, 6, 353-359; Rao, J.; et al., J. Am. Chem. Soc. 1999, 121, 2629-2630; Hong, S.; et al., Chem. Biol. (Cambridge, Mass., U.S.) 2007, 14, 107-115; Li, M.-H.; Eur. J. Med. Chem. 2012, 47, 560-572; Plantinga, A.; et al., ACS Med. Chem. Lett. 2011, 2, 363-367; Cooper, M. A.; et al., Bioorg. Med. Chem. 2000, 8, 2609-2616; each herein incorporated by reference in its entirety)). The experiments employed SPR spectroscopy to determine the binding constant KD for dendrimer-based multivalent vancomycin conjugates to the cell wall ligands immobilized on the chip surface as a model for the bacterial cell surface. The model surface was prepared by utilizing each CMS sensor chip which was treated to present N^α-Ac-Lys-(D)-Ala-(D)-Ala or N^α-Ac-(D)-Ala-(D)-Lac as the cell wall precursor on the surface, each representing a vancomycin-susceptible and vancomycin-resistant cell wall model, respectively (see, e.g., Rao, J.; et al., Chem. Biol. (Cambridge, Mass., U.S.) 1999, 6, 353-359; Rao, J.; et al., J. Am. Chem. Soc. 1999, 121, 2629-2630; each herein incorporated by reference in its entirety)). Such a peptide-presenting chip was prepared typically following a N-(3-dimethylaminopropyl)-N′-ethylcarbodiimide (EDC)-based amide coupling method at a surface peptide density of 0.12 ng/mm^2 (equivalent to 2.2×10^11 molecules/mm^2) (see, e.g., Hong, S.; et al., Chem. Biol. (Cambridge, Mass., U.S.) 2007, 14, 107-115; Plantinga, A.; et al., ACS Med. Chem. Lett. 2011, 2, 363-367; each herein incorporated by reference in its entirety)).
SPR spectroscopy. […]

[11] = system: N^α-Ac-Lys-(D)-Ala-(D)-Lac peptide; conditions: cited from earlier work
Staphylococcus aureus = test: Turbidity assay (bacterial cell lysis / growth); assay type: cell-based; conditions: OD at 650 nm, 24 h
Text: This example describes bacterial cell lysis experiments. Whether the binding of the vancomycin-conjugated dendrimer to the bacterial membrane causes bacterial cell lysis was next investigated. […] S.; et al., Antimicrob. Agents Chemother. 2009, 53, 3375-3383; herein incorporated by reference in its entirety)). On the other hand, the lack of such a mechanism would be more desirable for the diagnostic applications that aim for bacterial detection, isolation, and enumeration of whole cells. To determine the degree of cell lysis, a turbidity assay was employed. This assay quantitates the bacterial population in a culture by measuring the optical density (OD at 650 nm), and the cell populations are correlated with the degree of lysis (see, e.g., Chung, H. S.; et al., Proc. Natl. Acad. Sci. U.S.A. 2009, 106, 21872-21877; Lunde, C. S.; et al., Antimicrob. Agents Chemother. 2009, 53, 3375-3383; each herein incorporated by reference in its entirety)). Effects of the conjugates I-VI, VIII, IX on the cell growth rate were determined using the same Gram-positive strain Staphylococcus aureus and were presented as a function of the inhibitor concentration (FIGS. 12 and 13). […]
Turbidity assay. […] After incubation of the plates at 37° C. for 24 h, bacterial growth was examined by optical microscopy and reading an optical density (O. D.) value at 650 nm by an ELISA plate reader.

[12] = biological target: N^α-Ac-Lys-(D)-Ala-(D)-Ala peptide; conditions: vancomycin to (D)-Ala-(D)-Ala, literature; cited from earlier work

| Compound | valency-corrected β (= β ÷ n) [1] | β (multivalent binding enhancement = KD vancomycin ÷ KD G5-(V)n) [1] | Kd [2] | koff [2] | kon [2] | valency-corrected β (= β ÷ n) [3] | β (multivalent binding enhancement = KD vancomycin ÷ KD G5-(V)n) [3] | Kd [4] | koff [4] | kon [4] | further results |
| --- | --- | --- | --- | --- | --- | --- | --- | --- | --- | --- | --- |
| III Ac-G5-(V)3.5 | 210000 | 750000 | 0.002 µM | 0.00045 s⁻¹ | 640000 M⁻¹ s⁻¹ |  |  |  |  |  |  |
| I Ac-G5-(V)1.2 | 18000 | 210000 | 0.0071 µM | 0.00066 s⁻¹ | 98000 M⁻¹ s⁻¹ |  |  |  |  |  |  |
| IV Ac-G5-(V)5.8 | 150000 | 880000 | 0.0017 µM | 0.00029 s⁻¹ | 690000 M⁻¹ s⁻¹ | 655 | 3800 | 0.00025 µM | 4.4e-05 s⁻¹ | 450000 M⁻¹ s⁻¹ |  |
| II Ac-G5-(V)2.3 | 81000 | 190000 | 0.0081 µM | 0.00041 s⁻¹ | 320000 M⁻¹ s⁻¹ | 122 | 280 | 0.0034 µM | 0.00045 s⁻¹ | 150000 M⁻¹ s⁻¹ |  |
| Vancomycin (peptide) |  |  |  |  |  |  |  |  |  |  | β (multivalent binding enhancement = KD vancomycin ÷ KD G5-(V)n) [5]: 1; β (multivalent binding enhancement = KD vancomycin ÷ KD G5-(V)n) [6]: 1; Kd [7]: 1500 µM; Kd [8]: 0.95 µM |
| VI GA-G5-(V)6.0 | 74000 | 440000 | 0.0034 µM | 0.0028 s⁻¹ | 1.8e+06 M⁻¹ s⁻¹ | 293 | 1760 | 0.00054 µM | 0.00036 s⁻¹ | 670000 M⁻¹ s⁻¹ |  |
| CCCCCCCCCCNCCN[C@@]1(C)C[C@H](O[C@H]2[C@H](Oc3c4cc5cc3Oc3ccc(cc3Cl)[C@@H](O)[C@@H](NC(=O)[C@@H](CC(C)C)NC)C(=O)N[C@@H](CC(N)=O)C(=O)N[C@H]5C(=O)N[C@H]3C(=O)N[C@H](C(=O)N[C@H](C(=O)O)c5cc(O)c(CNCP(=O)(O)O)c(O)c5-c5cc3ccc5O)[C@H](O)c3ccc(c(Cl)c3)O4)O[C@H](CO)[C@@H](O)[C@@H]2O)O[C@@H](C)[C@H]1O [telavancin] |  |  |  |  |  |  |  |  |  |  | bactericidal activity / cell lysis (bacterial cells): potent bactericidal activity without causing cell lysis |
| CN[C@H](CC(C)C)C(=O)N[C@H]1C(=O)N[C@@H](CC(N)=O)C(=O)N[C@H]2C(=O)N[C@H]3C(=O)N[C@H](C(=O)N[C@H](C(=O)O)c4cc(O)cc(O)c4-c4cc3ccc4O)[C@H](O)c3ccc(c(Cl)c3)Oc3cc2cc(c3O[C@@H]2O[C@H](CO)[C@@H](O)[C@H](O)[C@H]2O[C@H]2C[C@](C)(N)[C@H](O)[C@H](C)O2)Oc2ccc(cc2Cl)[C@H]1O [Vancomycin, vancomycin] |  |  |  |  |  |  |  |  |  |  | Kd ([9]; (D)-Ala-(D)-Lac surface, mean (SEM), vancomycin by Scatchard analysis): 1500 µM and ~1500 µM; SPR binding response to the (D)-Ala-(D)-Lac surface ([9]; in words): very low responses; Kd [10]: 0.95 µM; Kd ([10]; mean (SEM), vancomycin by Scatchard analysis): 0.95 µM; SPR binding response to the (D)-Ala-(D)-Ala surface ([10]; in words, vancomycin at concentrations as low as 2 nM): no detectable response; reduction in affinity of (D)-Ala-(D)-Lac surface to free vancomycin ([11]; relative to (D)-Ala-(D)-Ala, reported): ~1000 fold; Kd ([11]; vancomycin to (D)-Ala-(D)-Lac, literature): ~1000 µM and 1700 µM; concentration at which optical density decreased to the background level (Staphylococcus aureus): ≥ 0.1 µM; Kd [12]: ~1 µM |
